Experimental findings from patent US20190105378 are described below.

This data set concerns the target FLAG-TEV recognition sequence-granzyme B AA21-240 fusion whose recognition site (SEQ ID NO: 6) has a G instead of Q, P10144.

Sequence of FLAG-TEV recognition sequence-granzyme B AA21-240 fusion whose recognition site (SEQ ID NO: 6) has a G instead of Q, P10144 (P10144 whole entry, looked up, the tested form may be a part): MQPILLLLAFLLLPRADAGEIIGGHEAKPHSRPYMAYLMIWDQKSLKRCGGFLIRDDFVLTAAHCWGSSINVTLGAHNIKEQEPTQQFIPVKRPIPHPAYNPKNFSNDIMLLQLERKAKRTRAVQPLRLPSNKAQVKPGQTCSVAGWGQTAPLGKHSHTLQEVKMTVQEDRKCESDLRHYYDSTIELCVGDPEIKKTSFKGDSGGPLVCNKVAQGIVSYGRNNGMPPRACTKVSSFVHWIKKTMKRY

B1: tobacco etch virus protease with N-terminal FLAG sequence (product of plasmid pSTdna 1023) (protein)
chain: MDYKDDDDKGDYKDDDDKGGGTGESLFKGPRDYNPISSTICHLTNESDGHTTSLYGIGFGPFIITNKHLFRRNNGTLLVQSLHGVFKVKNTTTLQQHLIDGRDMIIIRMPKDFPPFPQKLKFREPQREERICLVTTNFQTKSMSSMVSDTSCTFPSSDGIFWKHWIQTKDGQCGSPLVSTRDGFIVGIHSASNFTNTNNYFTSVPKNFMELLTNQEAQQWVSGWRLNADSVLWGGHKVFMSKPEEPFQPVKEATQLMNELVYSQ
As for B1, the “cleavage by TEV” value is “no cleavage by TEV takes place (not shown)”.
